Laboratory results as given in the supplement of paper PMC10219994.
± gives the standard deviation of the averaged measurements.

B1: library; a variant is named by its letters at N, in order (parent)
chain: GAGACCGCAACTGAAAAGTTGTGGNNNNNATAGTGAGTCGCTGCCTGCAAAGACACAACT

Variants of: B1
Experiment: ligation selection enrichment (abundance after / before one-round selection) (fold); higher = more template-directed ligation activity
Details: with T7Psub CACGGAUGCUAAUACGACUCACUAUA; MgCl2 25 mM; 42 °C; 4 h; pH 8.5
In short: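 An RNA ligase library with five randomized core positions, prepared by T7 transcription, was incubated at 0.75 μM with 6 μM RNA substrate in 50 mM EPPS pH 8.5 and 25 mM MgCl2 for 4 h at 42 °C, in two independent experiments. Ligated products were purified by PAGE, reverse transcribed, barcoded by PCR and sequenced on a MiSeq, and reads with a quality score of ≥30 at every randomized position were counted. Enrichment was calculated as abundance after ligation divided by abundance before ligation.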

With GAGACCGCAACTGAAAAGTTGTGGCATTCATAGTGAGTCGCTGCCTGCAAAGACACAACT [CATTC] as the variant, how does the ligation selection enrichment read?
The ligation selection enrichment was 0.152 ± 0.013.

GAGACCGCAACTGAAAAGTTGTGGGCGCGATAGTGAGTCGCTGCCTGCAAAGACACAACT [GCGCG] was tested. Which ligation selection enrichment did it give?
Its ligation selection enrichment is 0.558 ± 0.0074.

How did the ligation selection enrichment turn out when GAGACCGCAACTGAAAAGTTGTGGGATAAATAGTGAGTCGCTGCCTGCAAAGACACAACT [GATAA] was run?
The ligation selection enrichment was 0.189 ± 0.036.

How did the ligation selection enrichment turn out when GAGACCGCAACTGAAAAGTTGTGGACTGAATAGTGAGTCGCTGCCTGCAAAGACACAACT [ACTGA] was run?
Its ligation selection enrichment is 0.286 ± 0.048.

For GAGACCGCAACTGAAAAGTTGTGGTTAATATAGTGAGTCGCTGCCTGCAAAGACACAACT [TTAAT], which ligation selection enrichment is on record?
Its ligation selection enrichment is 7.9 ± 1.6.

How did the ligation selection enrichment turn out when GAGACCGCAACTGAAAAGTTGTGGTATAGATAGTGAGTCGCTGCCTGCAAAGACACAACT [TATAG] was run?
The ligation selection enrichment was 0.995 ± 0.016.

With GAGACCGCAACTGAAAAGTTGTGGACTCCATAGTGAGTCGCTGCCTGCAAAGACACAACT [ACTCC] as the variant, how does the ligation selection enrichment read?
Its ligation selection enrichment is 0.321 ± 0.011.

With GAGACCGCAACTGAAAAGTTGTGGACATAATAGTGAGTCGCTGCCTGCAAAGACACAACT [ACATA] as the variant, how does the ligation selection enrichment read?
Its ligation selection enrichment is 0.136 ± 0.019.

Which ligation selection enrichment does the source give for GAGACCGCAACTGAAAAGTTGTGGCAGTCATAGTGAGTCGCTGCCTGCAAAGACACAACT [CAGTC] here?
The ligation selection enrichment was 0.125 ± 0.019.

With GAGACCGCAACTGAAAAGTTGTGGAGAACATAGTGAGTCGCTGCCTGCAAAGACACAACT [AGAAC] as the variant, how does the ligation selection enrichment read?
Its ligation selection enrichment is 0.267 ± 0.06.

GAGACCGCAACTGAAAAGTTGTGGGTGGCATAGTGAGTCGCTGCCTGCAAAGACACAACT [GTGGC] was tested. Which ligation selection enrichment did it give?
Its ligation selection enrichment is 0.18 ± 0.0046.

GAGACCGCAACTGAAAAGTTGTGGGGAGTATAGTGAGTCGCTGCCTGCAAAGACACAACT [GGAGT] was tested. Which ligation selection enrichment did it give?
The ligation selection enrichment was 0.165 ± 0.0095.

For GAGACCGCAACTGAAAAGTTGTGGTCAGAATAGTGAGTCGCTGCCTGCAAAGACACAACT [TCAGA], which ligation selection enrichment is on record?
The ligation selection enrichment was 0.474 ± 0.043.

For GAGACCGCAACTGAAAAGTTGTGGAGATTATAGTGAGTCGCTGCCTGCAAAGACACAACT [AGATT], which ligation selection enrichment is on record?
The ligation selection enrichment was 1.66 ± 0.48.

How did the ligation selection enrichment turn out when GAGACCGCAACTGAAAAGTTGTGGCGACGATAGTGAGTCGCTGCCTGCAAAGACACAACT [CGACG] was run?
Its ligation selection enrichment is 0.671 ± 0.15.

How did the ligation selection enrichment turn out when GAGACCGCAACTGAAAAGTTGTGGACCGAATAGTGAGTCGCTGCCTGCAAAGACACAACT [ACCGA] was run?
The ligation selection enrichment was 0.379 ± 0.054.

Which ligation selection enrichment does the source give for GAGACCGCAACTGAAAAGTTGTGGGATGCATAGTGAGTCGCTGCCTGCAAAGACACAACT [GATGC] here?
Its ligation selection enrichment is 0.247 ± 0.024.

For GAGACCGCAACTGAAAAGTTGTGGTCGGCATAGTGAGTCGCTGCCTGCAAAGACACAACT [TCGGC], which ligation selection enrichment is on record?
Its ligation selection enrichment is 0.232 ± 0.01.

GAGACCGCAACTGAAAAGTTGTGGATGTGATAGTGAGTCGCTGCCTGCAAAGACACAACT [ATGTG] was tested. Which ligation selection enrichment did it give?
Its ligation selection enrichment is 0.566 ± 0.096.

For GAGACCGCAACTGAAAAGTTGTGGCTCAGATAGTGAGTCGCTGCCTGCAAAGACACAACT [CTCAG], which ligation selection enrichment is on record?
The ligation selection enrichment was 0.169 ± 0.011.

With GAGACCGCAACTGAAAAGTTGTGGATGCCATAGTGAGTCGCTGCCTGCAAAGACACAACT [ATGCC] as the variant, how does the ligation selection enrichment read?
Its ligation selection enrichment is 0.176 ± 0.0063.

How did the ligation selection enrichment turn out when GAGACCGCAACTGAAAAGTTGTGGACTATATAGTGAGTCGCTGCCTGCAAAGACACAACT [ACTAT] was run?
Its ligation selection enrichment is 0.119 ± 0.05.

With GAGACCGCAACTGAAAAGTTGTGGATATAATAGTGAGTCGCTGCCTGCAAAGACACAACT [ATATA] as the variant, how does the ligation selection enrichment read?
The ligation selection enrichment was 0.239 ± 0.089.

With GAGACCGCAACTGAAAAGTTGTGGTCCTGATAGTGAGTCGCTGCCTGCAAAGACACAACT [TCCTG] as the variant, how does the ligation selection enrichment read?
The ligation selection enrichment was 0.246 ± 0.011.

GAGACCGCAACTGAAAAGTTGTGGGTCGAATAGTGAGTCGCTGCCTGCAAAGACACAACT [GTCGA] was tested. Which ligation selection enrichment did it give?
Its ligation selection enrichment is 2.56 ± 0.37.

With GAGACCGCAACTGAAAAGTTGTGGAATGAATAGTGAGTCGCTGCCTGCAAAGACACAACT [AATGA] as the variant, how does the ligation selection enrichment read?
The ligation selection enrichment was 0.528 ± 0.046.

GAGACCGCAACTGAAAAGTTGTGGAATGGATAGTGAGTCGCTGCCTGCAAAGACACAACT [AATGG] was tested. Which ligation selection enrichment did it give?
Its ligation selection enrichment is 0.467 ± 0.097.

Which ligation selection enrichment does the source give for GAGACCGCAACTGAAAAGTTGTGGGGTCTATAGTGAGTCGCTGCCTGCAAAGACACAACT [GGTCT] here?
The ligation selection enrichment was 0.471 ± 0.12.

With GAGACCGCAACTGAAAAGTTGTGGAATACATAGTGAGTCGCTGCCTGCAAAGACACAACT [AATAC] as the variant, how does the ligation selection enrichment read?
The ligation selection enrichment was 0.183 ± 0.0067.

How did the ligation selection enrichment turn out when GAGACCGCAACTGAAAAGTTGTGGCGGAGATAGTGAGTCGCTGCCTGCAAAGACACAACT [CGGAG] was run?
The ligation selection enrichment was 0.459 ± 0.021.

For GAGACCGCAACTGAAAAGTTGTGGCACTCATAGTGAGTCGCTGCCTGCAAAGACACAACT [CACTC], which ligation selection enrichment is on record?
The ligation selection enrichment was 0.0626 ± 0.02.

How did the ligation selection enrichment turn out when GAGACCGCAACTGAAAAGTTGTGGCCTTTATAGTGAGTCGCTGCCTGCAAAGACACAACT [CCTTT] was run?
Its ligation selection enrichment is 0.455 ± 0.12.

GAGACCGCAACTGAAAAGTTGTGGTCGCCATAGTGAGTCGCTGCCTGCAAAGACACAACT [TCGCC] was tested. Which ligation selection enrichment did it give?
The ligation selection enrichment was 0.155 ± 0.028.

Which ligation selection enrichment does the source give for GAGACCGCAACTGAAAAGTTGTGGCTTGAATAGTGAGTCGCTGCCTGCAAAGACACAACT [CTTGA] here?
The ligation selection enrichment was 2.2 ± 0.37.

GAGACCGCAACTGAAAAGTTGTGGGCAACATAGTGAGTCGCTGCCTGCAAAGACACAACT [GCAAC] was tested. Which ligation selection enrichment did it give?
The ligation selection enrichment was 0.281 ± 0.015.

GAGACCGCAACTGAAAAGTTGTGGCTCTCATAGTGAGTCGCTGCCTGCAAAGACACAACT [CTCTC] was tested. Which ligation selection enrichment did it give?
The ligation selection enrichment was 0.116 ± 0.0082.

For GAGACCGCAACTGAAAAGTTGTGGCTAATATAGTGAGTCGCTGCCTGCAAAGACACAACT [CTAAT], which ligation selection enrichment is on record?
Its ligation selection enrichment is 1.29 ± 0.25.

GAGACCGCAACTGAAAAGTTGTGGGAAGGATAGTGAGTCGCTGCCTGCAAAGACACAACT [GAAGG] was tested. Which ligation selection enrichment did it give?
Its ligation selection enrichment is 0.571 ± 0.21.

GAGACCGCAACTGAAAAGTTGTGGTAAGTATAGTGAGTCGCTGCCTGCAAAGACACAACT [TAAGT] was tested. Which ligation selection enrichment did it give?
The ligation selection enrichment was 0.0779 ± 0.028.

GAGACCGCAACTGAAAAGTTGTGGGAAAGATAGTGAGTCGCTGCCTGCAAAGACACAACT [GAAAG] was tested. Which ligation selection enrichment did it give?
The ligation selection enrichment was 0.328 ± 0.021.

With GAGACCGCAACTGAAAAGTTGTGGCCGTAATAGTGAGTCGCTGCCTGCAAAGACACAACT [CCGTA] as the variant, how does the ligation selection enrichment read?
Its ligation selection enrichment is 0.213 ± 0.013.

For GAGACCGCAACTGAAAAGTTGTGGCACCCATAGTGAGTCGCTGCCTGCAAAGACACAACT [CACCC], which ligation selection enrichment is on record?
Its ligation selection enrichment is 0.15 ± 0.0098.

Which ligation selection enrichment does the source give for GAGACCGCAACTGAAAAGTTGTGGAACTTATAGTGAGTCGCTGCCTGCAAAGACACAACT [AACTT] here?
Its ligation selection enrichment is 0.165 ± 0.066.

For GAGACCGCAACTGAAAAGTTGTGGAACTAATAGTGAGTCGCTGCCTGCAAAGACACAACT [AACTA], which ligation selection enrichment is on record?
The ligation selection enrichment was 0.165 ± 0.013.

With GAGACCGCAACTGAAAAGTTGTGGATTGGATAGTGAGTCGCTGCCTGCAAAGACACAACT [ATTGG] as the variant, how does the ligation selection enrichment read?
Its ligation selection enrichment is 0.805 ± 0.035.
